Patent US20220088131A1, “COMPOSITIONS AND METHODS RELATING TO C5L2” (King's College London, priority 2013, published 2022)

What was measured:
[1] = tested on: CD14+ monocytes; test: Pro-inflammatory cytokine release by monocytes (CBA); format: cell-based, human; conditions: resting and Flagellin-stimulated monocytes; 36 hours; dRA 7 μM, PMX53 10 μM; FIG. 9
Experimental: FIG. 9. C5L2 blockade induces pro-inflammatory cytokine release by human monocytes. CD14+ monocytes (2.5×10^5) were cultured for 36 hours and supernatants assayed for cytokines using CBA. Monocytes were treated with either C5aR/C5L2 double receptor antagonist (dRA; 7 μM), C5aR antagonist (PMX53; 10 μM) or control (non-treated). The effect of antagonist treatment was assessed on non-activated monocytes (white bars) as well as monocytes activated with 1 μg/ml of either Flagellin (light grey bars) or 100 ng/ml LPS (dark grey bars). Data represent n=4 experiments with SEM indicated. Statistical testing was not conducted as insufficient experimental repeats were performed to assume normal distribution. Asterisk denotes that the median value was 10,400 pg/ml.
(§1) Human blood was obtained from healthy volunteers following ethical guidelines set by Kings College London (KCL) ethics committee (REC: 09/H0804/72). PBMCs were isolated by density centrifugation (Ficoll-Paque PLUS; GE healthcare, Uppsala, Sweden). […]
(§2) The Th1/Th2/Th17 Cytometric Bead Array (BD Bioscience) was used to quantify cytokine production by CD4^+ T cells and monocytes following 12 or 36 h culture under distinct activation conditions. […] IL-1β amounts secreted into the cell media were measured by ELISA, according to the manufacturer's protocol (R&D Systems, Abingdon, UK).

[2] = tested on: human CD4+ T cells; test: IL-1β secretion by CD4+ T cells (ELISA); format: cell-based; conditions: resting and activated (CD3/CD46) CD4+ T cells; dRA 7 μM; 24 h; FIG. 8
Experimental: FIG. 8. Effect of C5L2 blockage on IL-1β secretion by resting and activated CD4+ T cells and by monocytes. […] CD4+ T cells were isolated and left non-activated or CD3/CD46-activated as described (with or without addition of the C5aR/C5L2 double antagonist, dRA, 7 μM) and IL-1β secretion into the media measured at 24 h post activation using an ELISA. CD14+ monocytes (2.5×10^5) were left non-activated or activated with 100 ng/ml LPS for 12 h and supernatants assayed for IL-1β by ELISA. Data represent n=3 experiments with SEM for the CD4+ T cells and n=1 for monocytes (conditions were performed in duplicate and shown are the median values of each condition).
as §1, with “Sweden). Cell subsets were isolated by magnetic separation following manufacturer's instructions (Miltenyi Biotec, Auburn, Calif.).” for “Sweden).”
as §2

[3] = tested on: CD4+ T cells; test: TGF-β receptor chain expression in CD4+ T cells; format: cell-based, human; conditions: FIG. 16
Experimental: FIG. 16. C5L2 regulates TGF-β receptor chain expression in CD4+ T cells.
Results described above indicate that C5L2-mediated signals actively contribute to the negative regulation of human Th1 and Th17 responses. To further define C5L2-activated signaling events in CD4+ T cells, gene, miRNA and methylation arrays were performed using T cells from the C5-deficient patient and T cells activated in the presence of the dRA. […] It is believed that TGF-β is important for IL-17 production but also IFN-γ suppression. TGF-β receptor signaling via autocrine TGF-β production has been implicated as required for control of Th1 responses and prevention of autoimmunity in certain experimental models (Ishigame, et al., Proc Natl Acad Sci USA. (2013) 110(17):6961-6). It was of interest to examine whether C5L2-mediated signals regulate autocrine TGF-β production, TGF-β receptor signaling, or both.

B1: A8delta71-73: Dual C5aR/C5L2 receptor antagonist; C5a variant A8 (C27A, H67F, D69R, M70S, Q71L, G73R, Arg74 deleted) lacking amino acids 71-73 (protein)
chain: TLQKKIEEIAAKYKHSVVKKCCYDGAAVNNDETCEQRAARISLGPRCIKAFTECCVVASQLRANISFKRS
For B1, the “secretion of IL-6” value [1] was “promoted secretion”, the IL-1β secretion [2] was “increased IL-1β secretion” and the “expression of TGF-β receptor chains” value [3] was “increased expression”.
